Measurements: US20180215801A1 (BOARD OF TRUSTEES OF MICHIGAN STATE UNIVERSITY, published 2018)
Each block holds one binder with its values, some of them ahead of it.

Legend:
[1] = target: T1, Fc-free Cryptic (human Cryptic extracellular domain after removal of the Fc with TEV protease) (human, UniProt P0CG37 26-155); assay: SPR competition: 1 nM Activin A preincubated with Fc-free Cryptic, binding to captured ACTRIIA-Fc is blocked
T1 construct: Same conflict about the C-terminal limit as for Cryptic-Fc (155 vs 167)
Experimental: (§1) Receptor-ligand binding affinities were determined by SPR using the Biacore 2000. Anti-human IgG (Fc) antibody was immobilized onto four channels of a CM5 chip using amine coupling chemistry. […] A reference channel was monitored to account for nonspecific binding, drift, and bulk shifts.

[2] = target: T2, ALK4-Fc (human ALK4 extracellular domain fused to human IgG1 Fc) (human, UniProt P36896 24-110); assay: SPR (Biacore 2000), Fc fusion captured on anti-human Fc chip, ligand injected, 1:1 Langmuir fit
T2 construct: range 1-110; Captured on an anti-human Fc chip in SPR; also called ALK4-hIgg-Fc; human ALK4-Fc
T2 sequence (P36896 other isoform, or with tags, fused parts or gaps limits assumed, form in doubt): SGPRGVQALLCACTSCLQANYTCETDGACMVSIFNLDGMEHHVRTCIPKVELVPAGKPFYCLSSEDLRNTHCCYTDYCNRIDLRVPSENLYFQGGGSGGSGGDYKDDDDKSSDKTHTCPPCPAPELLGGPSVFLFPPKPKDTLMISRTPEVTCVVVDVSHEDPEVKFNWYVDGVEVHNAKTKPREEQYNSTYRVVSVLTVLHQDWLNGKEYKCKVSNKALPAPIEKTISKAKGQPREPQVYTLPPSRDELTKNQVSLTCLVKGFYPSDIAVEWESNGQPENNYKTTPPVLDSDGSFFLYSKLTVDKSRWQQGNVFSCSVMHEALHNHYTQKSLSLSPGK
Experimental: (§2) Receptor-ligand binding affinities were determined by SPR using the Biacore 2000. Anti-human IgG (Fc) antibody was immobilized onto four channels of a CM5 chip using amine coupling chemistry. […] A reference channel was monitored to account for nonspecific binding, drift, and bulk shifts. […] After each binding cycle, the antibody surface was regenerated to base line. All experiments were carried out at 25° C. HBS-EPS buffer (0.01 M HEPES, […], 3 mM EDTA, 0.005% (v/v) Tween 20, pH 7.4) containing 0.1% BSA was used as running buffer. […] Sensograms were analyzed by double referencing. To obtain kinetic rate constants, the processed data was fitted to 1:1 Langmuir interaction model with mass transport limitation using Scrubber, Clamp or BiaEvaluation software. The equilibrium binding constant Kd was determined by calculating the ratio of binding rate constants kd/kₐ.

[3] = target: T2, ALK4-Fc (human ALK4 extracellular …); assay: SPR, ALK4-Fc captured, Activin A series preincubated with excess Fc-free Cryptic injected
Experimental: as §2

[4] = target: T1, Fc-free Cryptic (human Cryptic …); assay: SPR competition: 10 nM Activin B preincubated with Fc-free Cryptic, binding to captured ACTRIIA-Fc is blocked
Experimental: as §1

binding result [1]: binds | Kd [2]: 4 nM | koff [2]: 0.0018 s⁻¹ | kon [2]: 450000 M⁻¹ s⁻¹
B1: Activin A (ligand)
chain: GLECDGKVNICCKKQFFVSFKDIGWNDWIIAPSGYHANYCEGECPSHIAGTSGSSLSFHSTVINHYRMRGHSPFANLKSCCVPTKLRPMSMLYYDDGQNIIKKDIQNMIVEECGCS
notes: also called homodimer of inhibin beta A subunits

Kd [3]: 2.6 nM | koff [3]: 0.0016 s⁻¹ | kon [3]: 620000 M⁻¹ s⁻¹
B2: Activin A/Cryptic complex (Activin A preincubated with excess Fc-free Cryptic) (other)
chain 1: GLECDGKVNICCKKQFFVSFKDIGWNDWIIAPSGYHANYCEGECPSHIAGTSGSSLSFHSTVINHYRMRGHSPFANLKSCCVPTKLRPMSMLYYDDGQNIIKKDIQNMIVEECGCS
chain 2: not shown

binding result [4]: binds
B3: Activin B (ligand, UniProt P09529 293-407, looked up)
chain: GLECDGRTNLCCRQQFFIDFRLIGWNDWIIAPTGYYGNYCEGSCPAYLAGVPGSASSFHTAVVNQYRMRGLNPGTVNSCCIPTKLSTMSMLYFDDEYNIVKRDVPNMIVEECGCA
notes: also called recombinant Activin B
